± gives the uncertainty stated by the source.
Assay: amyloid nucleation score (Sup35N fusion, yeast selection) (log enrichment); library NNK2; higher = more nucleation; inactive = no reads after selection
How it was run: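 The nucleation score is the DiMSum log enrichment of output over input reads, centred on the mode score of non-aggregating sequences. Only sequences with 100 or more input reads were scored, using Illumina sequencing of input and output plasmid inserts. Psi-negative yeast expressing Sup35N fused to peptides of 20 random codons were induced 24 hours with 100 μM copper sulfate and grown 7 days at 30°C on medium lacking adenine and uracil.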

Substance	amyloid nucleation score
YTEGAWVRVSDYRE	-0.565 ± 0.29
RTYEMVIKFSGSLVRAFRVL	-0.068 ± 0.79
LLSQKRGCHVSGHIGVEA	-0.218 ± 0.31
TLNYSVEQPYAVIILGCKLA	3.56 ± 0.083
SIQLRVK	inactive
VFPQLCDVSLE	-0.476 ± 1.1
YSSSVMPRRSDRVRT	0.139 ± 0.63
KISSLLGWLWRITIRRLGRA	0.617 ± 0.65
KCWLLGHWEDFCTLSKMERN	inactive
KSSSAVIW	-0.045 ± 0.53
NMIVYC	inactive
TWHSIWREYSGTFTHTYWTD	0.555 ± 0.62
CCVVYF	9.638 ± 0.039
TRCGMEAYMSLDMGLYERPM	-0.762 ± 0.41
LPEIHLVTLC	-0.802 ± 0.49
DFDVEA	-0.176 ± 1.1
PERCYQTG	-0.251 ± 0.76
VHFCLKH	0.241 ± 0.22
LKWRVRWAIKED	0.547 ± 0.21
ARNWVHNCFWSHISFTSIA	1.59 ± 0.13
YSPSVVVDCRSGRDRNLRGY	-0.254 ± 0.55
SFMGLAMHRSLSSCSVRSWY	0.199 ± 0.53
WISNAWLYLWKHR	0.586 ± 0.81
WAVELLLA	1.03 ± 0.53
YFVCVASDGNMGIRYATR	inactive

Substance	amyloid nucleation score
FYGSEVIMSTDVQGNGEYGA	-0.791 ± 0.62
NDNFLCSAIVFCMAVFRFGW	inactive
VLECFFVA	0.183 ± 0.5
NCGLCGILHHL	8.14 ± 0.072
TISYKELLFANRFRELQPAD	0.299 ± 0.49
GVFLGALCVFTSCLSELWMC	-1.49 ± 0.78
STWLS	-0.626 ± 1.1
TSYIYLMISASPQFLS	4.04 ± 0.11
YGQSRANDTDDPGWGTVMRL	0.3 ± 0.74
QHWRLNWNEDFFMYWYGFLT	-0.655 ± 0.41
ILILVLIECLILWFCYTMCI	3.16 ± 0.049
LINPCVRLWLCNCIFTFESA	7.872 ± 0.027
IPCTTSCVVQFCVTYWLDN	6.419 ± 0.029
SKYMRFGDTFLFARMHGKGD	4.49 ± 0.048
SCRSIRYEWRHDTVGRRSTR	3.2 ± 0.064
SVLSLFWLFTDFLVVSHDIL	-0.784 ± 1.1
GYLILFTCNPLVFLVNRSGR	inactive
ARFWWALGNLCERIAGNDWV	0.216 ± 0.44
KQLKWFCITK	-0.862 ± 0.45
CHRLSNLKRVDDAGFVRWNY	-0.477 ± 0.23
YLYPSCCIRYILILNFYTVI	0.013 ± 0.16
SLSTSFLYDFWVLNSADPRY	-0.258 ± 0.76
VRYMLRTLEYMSRVGCSISH	0.101 ± 0.76
LSFRYVFIWIEVFPILGNMR	-1.77 ± 0.34
WVVRGWLGV	0.23 ± 0.38

Substance	amyloid nucleation score
ILSLIYGA	-0.084 ± 0.54
TSLGGWVLERRCLPDAADMR	1.2 ± 0.31
RYISPSQSAQVSGHLRNVQL	0.689 ± 0.62
ILANCGCCSNFSFYQMGEKY	8.279 ± 0.047
VGGIWE	-0.427 ± 0.45
LYRTYLYTDYFTKMHV	-1.16 ± 0.76
IYLQGAGLL	inactive
FLLRIWTACVLFACKYRGIR	inactive
VEHEFVQILT	-0.733 ± 0.36
YLFVQEKKRVFRYFRWRHPV	-0.032 ± 0.8
NTKYRRFFFNTVRLLHM	-0.28 ± 0.79
LDWAWACSWVVA	0.389 ± 0.8
ARVIECLHGRN	-0.147 ± 0.44
KWIMWLDRYPDTSPCILYAQ	4.42 ± 0.055
DRAGLATLNSLELGDDGFLG	-1 ± 0.78
RFMVTTAGRVLPLLSMRGWA	4.68 ± 0.061
VWPLNYYGWKTNMSSCFHST	-1.1 ± 1.1
SKGSTGLRIVLFHFTCVVID	1.99 ± 0.17
PFSWH	1.38 ± 0.14
RVFLSGSWSTHGNFCRLRNV	-0.449 ± 0.41
YRNRVSLRKYRDARYQLCCT	0.247 ± 0.25
IATHHTDESAG	-0.083 ± 0.79
TRHSGKLLFNILMFRVMSCR	-0.36 ± 0.74
KARSRLLVFYKYTKGIWAQS	-0.147 ± 1.1
LTNEI	-0.515 ± 1

Substance	amyloid nucleation score
YTQAYILVLIVLLLLSVMVI	5.638 ± 0.054
QSRWSFKTYYSREKW	-0.278 ± 0.39
STWPIGPSCSLIVCREDCET	1.45 ± 0.34
MRKMRTMNAQWSWIIVCSFW	0.151 ± 0.63
IVMFQNFVQMDVNYCCFLEV	6.768 ± 0.04
CSNYQRYTILVYPTRSYGCL	0.558 ± 0.6
VPLTPLGENTECLSRARDIT	0.826 ± 0.45
GLIGSERNSRVWRNYQMSCS	2.99 ± 0.11
CPCYCLTSFACLGNSVPTWR	10.15 ± 0.043
AYRWMDSSSTRFGTGLG	0.895 ± 0.81
LWFQVTFDRICLQITTHTEL	4.86 ± 0.075
VYCRNVELIGAYGIFAGSHI	-0.187 ± 0.79
RNESHVNLLGFMLDRRPDRG	4.37 ± 0.071
SCAHCCHRKVLR	0.53 ± 0.3
SILNDESFILLDILMVHFEY	-0.547 ± 0.35
TYIRDRHIVYWGHTGSFIYM	1.63 ± 0.18
DILMLNRSVGDIREAISVNG	0.48 ± 0.51
NPALNRLMDGVNRFPLKCYV	-0.338 ± 0.23
WLLWS	0.472 ± 0.26
FRVGLLVGISMVDFTLGVNA	0.416 ± 0.8
NKLFPAWLPMCVFWFYGFLA	-0.138 ± 0.53
IKVYSTVYQVSCLLRLMLLM	-1.24 ± 0.64
TIGPNKMRVEAGLEFQKLGK	-1.23 ± 0.76
YINSGV	inactive
KSVQDNDMSPACRAD	0.804 ± 0.45

Substance	amyloid nucleation score
VLRLRGLRRWI	0.638 ± 0.23
RRYIMQSWLHATSEFPGCDP	0.54 ± 0.53
PILADGLCIFNR	-0.47 ± 0.34
GPFNNRRGQFYSVCIYFLLR	inactive
CNNCYALYHDGV	-0.396 ± 0.39
EMVRTTMSWPYMFS	-0.47 ± 1.1
FLNHE	inactive
MDSIHFV	-0.029 ± 0.41
LSNAFRLNYTLLYAFISYFH	-1.22 ± 0.76
HLLRNLLPHKVGSHVHRWLR	inactive
RPGMARVFNAA	0.673 ± 0.36
LFLTHPARWSSNLRRLL	0.069 ± 0.3
IPMHPLCGVRRNTELRVVEW	1.78 ± 0.25
GDVDEWCLTGLGLSNIMVGQ	1.52 ± 0.58
GYINWSCDRDMFSRTTDFLG	-0.592 ± 0.34
VWKINISWRPSLSLLVIRLV	-0.594 ± 0.27
ARLLWMRP	inactive
SNGPW	-0.512 ± 0.76
KTREFNEQIVYGASVYVYQG	0.672 ± 0.43
TFKVVSKDNI	-0.317 ± 0.41
FTWVYMHNIIFLLGSRLYIK	inactive
CVWHVF	inactive
QSPSL	-0.381 ± 0.79
SAADQPKWRSTTSCVPSDVS	3.74 ± 0.068
NRTGEYLYRRWVQSGSGGKG	0.553 ± 0.65

Substance	amyloid nucleation score
WLHTTFSRSICSISIHRALE	-0.07 ± 0.48
CNTLLTFNYNAYVIEVM	0.839 ± 0.17
ALYFVIQLPV	-0.677 ± 0.63
LFYAAEYKLCMEV	-0.857 ± 0.41
KFACCRYVGVYYKTTYSILR	-1.17 ± 0.49
IVSVYATAIGGVRFRECCIG	-0.09 ± 0.34
CKTTQDSDITCK	-0.747 ± 0.79
YIVQWSFMVSRSQ	1.62 ± 0.086
RMLRKSNGS	0.066 ± 0.3
LIWVRGNEGRFGGRLVLVVE	inactive
NSVCYGP	0.899 ± 0.47
AIIGKFVGVCCD	-0.931 ± 1.1
GYINEYCCHLRVNGLLRAPG	-0.315 ± 0.5
NQRHVIPNSIVLWWGELDLF	0.465 ± 0.8
RISRFCL	1.52 ± 0.26
LRSFM	-0.591 ± 0.5
GVHLYLNVYVTLKFTATGDS	5.79 ± 0.077
LYLKFYLCTGKDNDWNT	inactive
FISTGRHTICDIVAHNADLF	-0.305 ± 0.8
ARMSFWRRRPLLLSLRRSGV	0.379 ± 0.44
CYFNARSDSVNVYVV	-0.029 ± 1.1
YRVAMYMDSVFIMYAYDIPN	2.1 ± 0.14
VLFGLKYFGSAGIQMSTCDK	3.53 ± 0.066
LIMLASSLWTRKGGDTST	6.292 ± 0.053
FNYYLCTPIKVGTCPCVDFR	7.17 ± 0.075

Substance	amyloid nucleation score
ERFHIVLHMVIDDRVSFGCV	2.96 ± 0.12
ACNSRHHEFMSSKFYSATQL	-1.3 ± 0.78
GKGNLQSCYEWKYKKLYVHT	-0.248 ± 0.38
MGAYEGDRVQMLEHADFRKN	-0.355 ± 0.74
PTGGRLYSV	0.012 ± 1
VWNSIDTIYIYRHNYGFFYF	0.751 ± 0.36
SVCFFVLFYIYSYCRHVMKW	inactive
VCLFLSNQRMWYVEFNTC	-0.549 ± 1
IKNSRNVLLMPLLANHWHNS	-0.58 ± 0.63
NNSWTDLRCVIYMSITGEPH	8.633 ± 0.044
LPGSRHNSRMSLRTQVVKVL	inactive
VVRYRLCSWMDIMCNVAACQ	4.267 ± 0.042
SLSVI	0.264 ± 0.65
GMSITPWHWFGPCISFPDIN	-0.55 ± 0.53
QTTDNFIVKHALCNVA	-0.622 ± 0.34
TCVVIQGIRGWGWMSVSFMP	-0.829 ± 0.63
RGSVNCGLFLSRKSDASGRG	0.234 ± 0.57
NTQDFGLCYIFFLQDRCN	-0.117 ± 0.49
SMTNNMGLLE	-0.979 ± 0.76
NGLYCFEVLLGSSAFPWTG	3.63 ± 0.082
IHSSVGYMKTVPKLDDS	0.207 ± 0.34
DDSHLNCDNRIVISMLRNGN	0.528 ± 0.32
YYTFFNKRYNRWCMMNLNLT	inactive
